The record followed here is US7851165B2, “Screening compounds for activity in modulating chloride ion transport” (Pharmos Bioscience A/S, priority 2005, dated 2010).

One test relates to Ostm1. The test can be described thus: Western blot of Ostm1 species after incubating fibroblasts with protease inhibitors. It is filed as cell-based. The conditions noted are these: fibroblasts incubated with protease inhibitor, FIG. 1 part (d).
In test [1] the target is T1, lamp-2, endogenous, from solubilized mouse brain membranes (mouse, UniProt P17047 26-415, limits assumed).
T1 construct: Specificity control in the brain co-immunoprecipitation
T1 sequence (looked up): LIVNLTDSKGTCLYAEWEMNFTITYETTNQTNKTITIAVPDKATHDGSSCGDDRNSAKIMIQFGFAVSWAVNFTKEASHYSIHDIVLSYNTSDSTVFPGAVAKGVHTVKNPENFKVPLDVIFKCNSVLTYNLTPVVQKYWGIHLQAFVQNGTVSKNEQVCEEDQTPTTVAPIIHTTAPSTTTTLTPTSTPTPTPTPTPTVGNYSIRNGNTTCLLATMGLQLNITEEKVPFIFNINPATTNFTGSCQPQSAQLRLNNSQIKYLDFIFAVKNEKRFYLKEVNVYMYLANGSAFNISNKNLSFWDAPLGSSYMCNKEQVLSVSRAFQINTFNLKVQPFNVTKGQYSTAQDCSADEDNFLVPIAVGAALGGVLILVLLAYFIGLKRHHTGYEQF
In words: co-immunoprecipitation from solubilized mouse brain membranes, Western blot. The text has this:
(§1) ClC-7 and Ostm1 can be co-immunoprecipitated using endogenous material (FIG. part (d)) or overexpressed proteins (FIG. 6). […] Solubilized brain membranes from the genotypes indicated were directly loaded on the gel (input, lanes 1-3), or first immunoprecipitated with ClC-7 (lanes 4,5) or Ostm1 antibodies (lanes 6,7).
(§2) Ostm1 or ClC-7 antibodies were crosslinked to protein A sepharose by dimethylpimelimidate. Brain membranes were pelleted and solubilized in lysis buffer (MES buffered saline pH 6.5, 1% Triton X-100, 2.5 mM CaCl_2, 2.5 mM MgCl_2). Non-solubilized material was removed by centrifugation at 70,000×g. Samples were incubated with protein A sepharose-antibody complexes for 2 h at 4° C. and washed 4× with lysis buffer. After elution with 100 μl 0.1 M glycine/Cl, pH 2.8, samples were neutralized and denatured using SDS sample buffer. Equivalent amounts of lysate and precipitate were separated by SDS-PAGE.
(§3) Resulting Western blots were probed for the proteins indicated at right. Arrowheads, specific Ostm1 bands; *, non-specific bands. Equivalent amounts of lysates and precipitates were loaded.
On the technique in general: A western blot detects proteins with antibodies after separation by electrophoresis.

For test [2], the target named is T2, ClC-3, endogenous, from solubilized mouse brain membranes (mouse, UniProt P51791 1-818, limits assumed).
T2 construct: Specificity control in the brain co-immunoprecipitation; also called CIC-3
T2 sequence (looked up): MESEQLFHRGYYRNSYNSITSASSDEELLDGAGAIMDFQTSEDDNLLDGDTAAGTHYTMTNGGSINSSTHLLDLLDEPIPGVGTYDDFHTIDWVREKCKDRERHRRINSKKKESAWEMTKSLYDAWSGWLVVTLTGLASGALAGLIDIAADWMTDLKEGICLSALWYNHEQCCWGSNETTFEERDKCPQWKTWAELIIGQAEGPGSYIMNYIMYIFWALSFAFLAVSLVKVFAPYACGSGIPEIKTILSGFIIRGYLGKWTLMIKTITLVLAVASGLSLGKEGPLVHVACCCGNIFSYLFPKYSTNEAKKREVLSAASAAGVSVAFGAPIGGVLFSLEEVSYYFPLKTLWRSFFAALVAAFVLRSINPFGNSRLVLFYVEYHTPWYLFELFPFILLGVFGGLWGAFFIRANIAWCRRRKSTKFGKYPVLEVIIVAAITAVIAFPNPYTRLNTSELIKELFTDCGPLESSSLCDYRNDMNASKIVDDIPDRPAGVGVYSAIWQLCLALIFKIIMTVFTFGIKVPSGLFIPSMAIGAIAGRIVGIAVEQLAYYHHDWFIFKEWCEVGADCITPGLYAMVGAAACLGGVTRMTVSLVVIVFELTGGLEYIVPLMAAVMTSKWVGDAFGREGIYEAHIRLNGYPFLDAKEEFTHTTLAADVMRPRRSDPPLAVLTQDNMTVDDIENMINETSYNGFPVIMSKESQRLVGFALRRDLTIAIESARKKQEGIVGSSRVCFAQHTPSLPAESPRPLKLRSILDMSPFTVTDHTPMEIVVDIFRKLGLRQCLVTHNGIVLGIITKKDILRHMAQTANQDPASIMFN
The description is as above.
Source text: as §1, §2, §3

Test [3] deals with T3, ClC-6, endogenous, from solubilized mouse brain membranes (mouse, UniProt O35454 1-870).
T3 construct: Specificity control in the brain co-immunoprecipitation; also called CIC-6
T3 sequence (looked up): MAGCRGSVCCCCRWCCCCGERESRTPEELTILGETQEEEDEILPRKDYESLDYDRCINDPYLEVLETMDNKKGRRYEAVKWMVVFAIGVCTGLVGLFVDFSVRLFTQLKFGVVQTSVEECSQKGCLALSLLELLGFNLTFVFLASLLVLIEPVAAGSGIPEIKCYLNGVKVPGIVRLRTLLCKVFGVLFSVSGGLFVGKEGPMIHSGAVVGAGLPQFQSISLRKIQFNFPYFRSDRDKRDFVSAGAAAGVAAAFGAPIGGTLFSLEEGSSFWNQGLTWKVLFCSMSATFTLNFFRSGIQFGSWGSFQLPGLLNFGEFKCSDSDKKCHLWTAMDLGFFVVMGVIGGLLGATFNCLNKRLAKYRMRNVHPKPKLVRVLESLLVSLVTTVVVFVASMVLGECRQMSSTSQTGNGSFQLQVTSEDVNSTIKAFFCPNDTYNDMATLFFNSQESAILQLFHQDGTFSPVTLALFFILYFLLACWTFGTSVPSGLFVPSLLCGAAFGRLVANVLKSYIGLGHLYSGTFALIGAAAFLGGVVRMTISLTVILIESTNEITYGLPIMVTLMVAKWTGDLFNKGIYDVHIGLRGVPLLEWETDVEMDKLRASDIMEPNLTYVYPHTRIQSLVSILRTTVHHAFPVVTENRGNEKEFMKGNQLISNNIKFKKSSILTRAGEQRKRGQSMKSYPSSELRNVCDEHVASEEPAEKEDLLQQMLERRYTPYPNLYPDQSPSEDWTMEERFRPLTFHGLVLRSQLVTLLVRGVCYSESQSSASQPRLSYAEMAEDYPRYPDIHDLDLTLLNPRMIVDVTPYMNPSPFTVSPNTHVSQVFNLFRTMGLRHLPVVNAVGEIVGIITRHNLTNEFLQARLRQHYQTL
The test is described as above.
Source text: as §1, §2, §3

Turning to `CC(=O)N[C@@H](CC(C)C)C(=O)N[C@@H](CC(C)C)C(=O)N[C@H](C=O)CCCNC(=N)N` [leupeptin], the “proportion of the large (~80 kD) Ostm1 species versus the smaller ones” value with Ostm1 is given as “increased the proportion of the large Ostm1 species”.

B1: Ostm1 (Osteopetrosis-associated transmembrane protein 1), endogenous, from solubilized mouse brain membranes (other, UniProt Q8BGT0 35-338, looked up)
chain: ALPFTSSRHPGFADLLSEQQLLEVQDLTLSLLQGGGLGPLSLLPPDLPDLEPECRELLMDFANSSAELTACMVRSARPVRLCQTCYPLFQQVAIKMDNISRNIGNTSEGPRCGGSLLTADRMQIVLMVSEFFNSTWQEANCANCLTNNGEDLSNNTEDFLSLFNKTLACFEHNLQGHTYSLLPPKNYSEVCRNCKEAYKNLSLLYSQMQKLNGLENKAEPETHLCIDVEDAMNITRKLWSRTFNCSVTCSDTVSVVAVSVFILFLPVVFYLSSFLHSEQKKRKLILPKRLKSSTSFANIQENAT
modifications: N-linked glycosylation of the luminal domain
notes: Endogenous protein immunoprecipitated from Triton X-100 solubilized mouse brain membranes; also called product of the OSTM1 gene
Consider B1, for which the binding result in test [1], in test [2] and in test [3] was “no binding” in each case.
